Five molecules from patent US20090252729A1 (Biogen, published 2009) can be followed below.

For assay [1], the target named is T1, human LTα1β2 on phorbol myristate acetate activated II-23 cells (human, UniProt P01374 35-205; Q06643 1-244).
T1 construct: whole, on cells
T1 sequence (looked up) 1: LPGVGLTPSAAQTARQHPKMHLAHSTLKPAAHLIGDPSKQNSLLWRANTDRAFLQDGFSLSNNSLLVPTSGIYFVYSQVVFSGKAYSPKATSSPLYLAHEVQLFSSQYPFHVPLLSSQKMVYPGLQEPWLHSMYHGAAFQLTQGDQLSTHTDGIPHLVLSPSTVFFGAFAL
T1 sequence (looked up) 2: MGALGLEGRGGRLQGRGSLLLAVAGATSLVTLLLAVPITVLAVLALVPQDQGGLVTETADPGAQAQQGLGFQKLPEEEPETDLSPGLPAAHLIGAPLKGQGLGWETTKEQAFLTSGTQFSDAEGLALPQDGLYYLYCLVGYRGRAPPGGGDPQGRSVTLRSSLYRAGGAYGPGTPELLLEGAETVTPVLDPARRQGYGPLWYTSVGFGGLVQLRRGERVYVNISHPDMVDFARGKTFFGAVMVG
Briefly: FACS direct binding on PMA-activated II-23 cells, mean fluorescence (MFI). How it is done: The binding affinity of the monomeric LTβR:scFc was also evaluated by FACS analysis (FIG. 59B). FACS was done on II-23 cells according to the methods of Eldredge et al. (Eldredge, Berkowitz et al. 2006). FACS binding assays using flow cytometry were done according to the method previously described (Force, Walter et al. 1995). Briefly, in direct binding assays human LTα1β2 was detected on phorbol myristate acetate activated II-23 cells (American Type Culture Collection (ATCC) Manassas, Va.) in FACS buffer with varied concentrations of either the LTβRIgG or biotinylated LTβRIgG (bLTβRIgG). Cells were incubated on ice for 1-2 h then washed with PBS and centrifuged. The appropriate steptavidin phycoerythrin or anti-hFc phycoerythrin labeled secondary (Molecular Probes, Eugene, Oreg.) in FACS buffer was added and incubated with the cells for an additional 1 h and washed again. The fluorescent staining of the cellular bound LTβRIgG on the II-23 cells was quantified by determining the mean channel fluorescence by FACS. Both the FACS and ELISA show the LTβRscFc has a reduced binding affinity compared with LTβRIgG.

The target of assay [2] is T2, LTα1β2 (coated on ELISA plates) (Homo sapiens (Human), UniProt P01374 35-205; Q06643 49-244, Heterotrimer of one alpha and two beta chains, as the name says.).
T2 construct: Heterotrimer of one alpha and two beta chains by its name; also called LTa1β2; copies: 1 + 1
T2 sequence (alpha): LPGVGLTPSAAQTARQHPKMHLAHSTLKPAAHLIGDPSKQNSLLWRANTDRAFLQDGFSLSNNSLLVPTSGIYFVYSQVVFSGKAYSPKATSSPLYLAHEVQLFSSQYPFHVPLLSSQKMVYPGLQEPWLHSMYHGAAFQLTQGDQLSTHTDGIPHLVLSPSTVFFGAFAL
T2 sequence (beta): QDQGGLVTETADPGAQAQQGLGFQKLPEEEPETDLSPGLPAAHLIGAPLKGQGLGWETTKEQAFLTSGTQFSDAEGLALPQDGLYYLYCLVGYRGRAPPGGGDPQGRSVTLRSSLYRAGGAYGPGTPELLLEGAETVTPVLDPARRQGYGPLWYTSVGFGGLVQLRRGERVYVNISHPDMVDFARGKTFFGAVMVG
Briefly: ELISA on plates coated with 5 ug/ml LTα1β2, detected with anti-human HRP secondary antibody. The value is parameter C (midpoint) of the four-parameter fit y = ((A-D)/(1+(x/C)^B))+D printed under the plot. The unit is taken from the x axis. As for the experimental part:
FIG. 59A depicts the results of an ELISA evaluating the binding affinity of the monomeric LTβR:scFc to LTα1β2. ELISA plates were coated overnight at 4° C. with 5 ug/ml LTα1β2 in PBS. Plates were then blocked with 1% Casein in 10 mM PBS, pH 7.0, then washed with 10 mM PBS, pH 7.0, 0.1% Tween 20 (wash buffer) three times. LTβR:IgG or LTBβ:scFc serially diluted into 10 mM PBS, 362 mM NaCl, 0.055 Tween-20, 0.1% Casein, 5% FBS pH 7.0 (assay diluent) and incubated for 1 h, then washed with wash buffer. To each well was added Donkey anti-human heavy and light specific HRP (Jackson Labs) conjugated secondary antibody diluted 1:5000 in assay diluents for 60 min then washed with PBS. The HRP was developed using tetramethybenzidine and hydrogen peroxide in 100 mM NaAcetate pH 4.0 after several minutes, the assay was stopped by the addition of 100 uL of 1N sulfuric acid and sample absorbance read at 450 nm.
(ELISA stands for enzyme-linked immunosorbent assay.)

Assay [3] concerns the target T3, human FcRIII-GST (CD16a, V158) (human, UniProt P08637 17-208, limits assumed).
T3 construct: also called human FcγRIII; FcγRIII (CD16a); not shown: GST tag
The assay can be described thus: Alphascreen assay, human FcγR CD16a. As for the experimental part: (§1) The ability of scFc antibodies comprising GGGGS (“1×-G4S”) or (GGGS)3 (“3×-G4S”) linkers to engage Fcγ receptors was also evaluated in an Amplified Luminescent Proximity Homogeneous Assay (Alphascreen®; Perkin Elmer). Laser excitation (680 nm) of a donor bead generates singlet oxygen which, if in close proximity to an acceptor bead, initiates a cascase of events ultimately leading to fluorescence emission at 520-620 nm. Donor and acceptor beads decorated with ligand and receptor proteins, respectively, are brought into desired proximity only when the receptor and ligand become functionally engaged.
(§2) The Alphascreen® assay was performed in a competitive format in which serial dilutions of test antibodies (WT IgG1 or scFc) were incubated with human FcRIII-GST (CD16a, V158) and anti-GST acceptor beads overnight at 4° C. in a 96-well white plate. Streptavidin donor beads and biotinylated wild-type IgG1 were also incubated overnight at 4° C. in a separate tube and then added to the assay plate the next day. After a two-hour incubation at room temperature with gentle shaking the plates were read in an Envision® plate reader (Perkin Elmer).
In general terms: Bead proximity is the source of the signal in Alpha formats.

The next assay has as its target T4, human FcγR IIb (CD32b) (human, UniProt P31994 43-217, limits assumed).
T4 sequence (looked up): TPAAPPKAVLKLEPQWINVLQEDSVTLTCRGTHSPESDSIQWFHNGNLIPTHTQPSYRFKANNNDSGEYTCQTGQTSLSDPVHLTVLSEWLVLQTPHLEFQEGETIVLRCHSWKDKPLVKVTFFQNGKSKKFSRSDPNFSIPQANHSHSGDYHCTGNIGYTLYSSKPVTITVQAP
The assay can be described thus: Alphascreen assay, human FcγR CD32b.

The target of a further assay is T5, human FcγR IIa (CD32a) (human, UniProt P12318 34-217, limits assumed).
T5 sequence (looked up): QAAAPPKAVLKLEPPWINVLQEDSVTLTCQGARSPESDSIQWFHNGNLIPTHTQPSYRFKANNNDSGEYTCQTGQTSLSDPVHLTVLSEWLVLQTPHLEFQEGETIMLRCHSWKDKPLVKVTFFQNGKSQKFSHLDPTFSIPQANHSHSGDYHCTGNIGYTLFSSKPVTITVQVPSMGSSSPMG
The assay can be described thus: Alphascreen assay, human FcγR CD32a (R).

Assay [4] deals with cynomolgus FcγR III (CD16a) (cynomolgus, UniProt Q8SPW2 17-208, limits assumed). Briefly: Alphascreen assay, cynomolgus FcγR CD16a.
The target of assay [5] is T6, cynomolgus FcγR IIb (CD32b) (cynomolgus, UniProt A0A140HDP4 43-217).
T6 sequence: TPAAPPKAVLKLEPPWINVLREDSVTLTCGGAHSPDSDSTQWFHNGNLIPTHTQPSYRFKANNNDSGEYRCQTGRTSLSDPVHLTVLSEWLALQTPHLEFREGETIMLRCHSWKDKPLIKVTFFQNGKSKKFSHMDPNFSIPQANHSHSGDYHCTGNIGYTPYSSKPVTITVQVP
The assay can be described thus: Alphascreen assay, cynomolgus FcγR CD32b.

Assay [6] deals with T7, cynomolgus FcγR IIa (CD32a) (cynomolgus, UniProt A0A140HDN0 28-215).
T7 sequence: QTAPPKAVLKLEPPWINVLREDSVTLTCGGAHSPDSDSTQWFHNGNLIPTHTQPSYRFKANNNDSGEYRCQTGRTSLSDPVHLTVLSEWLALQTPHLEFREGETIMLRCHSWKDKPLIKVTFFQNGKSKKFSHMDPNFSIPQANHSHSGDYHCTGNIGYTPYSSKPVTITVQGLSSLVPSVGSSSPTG
Briefly: Alphascreen assay, cynomolgus FcγR CD32a (R).

Assay [7] concerns the target T3, human FcRIII-GST (CD16a, V158). Briefly: Alphascreen competition assay, huCD16a V158-GST on anti-GST acceptor beads; competitor: biotinylated wild-type IgG1 on streptavidin donor beads. Further details: IC50 (read off the curve): unit not given here. As for the experimental part:
as §1, §2

Assay [8] shares this target. The assay can be described thus: Alphascreen. How it is done: as §1, §2
Assay [9] has the same target. The assay can be described thus: Alphascreen, competitive format, competitor biotinylated wild-type IgG1. How it is done:
as §1, §2

B1: LTβR:IgG, dimeric (Fc fusion, not shown: a dimerising Fc or GST; small tags and cut ends)
chain: QAVPPYASENQTCRDQEKEYYEPQHRICCSRCPPGTYVSAKCSRIRDTVCATCAENSYNEHWNYLTICQLCRPCDPVMGLEEIAPCTSKRKTQCRCQPGMFCAAWALECTHCELLSDCPPGTEAELKDEVGKGNNHCVPCKAGHFQNTSSPSARCQPHTRCENQGLVEAAPGTAQSDTTCKNPLEPLPPEMSGTMLM
modifications: Dimeric through its Fc, which is left out. A biotinylated form (bLTβRIgG) was also used in FACS.
notes: Conventional dimeric receptor-Fc fusion used as the comparator; also called bLTβRIgG (biotinylated)
B1: the “EC50 (read off the curve)” value in assay [1] was around 0.1 µg/mL. The molecule also returned a concentration giving a half-maximal response (EC50) in [2] of 0.028 µg/mL.

B2: Hu5C8, conventional human IgG1 anti-CD40L antibody (antibody)
heavy: not shown
light: DIVLTQSPATLSVSPGERATISCRASQRVSSSTYSYMHWYQQKPGQPPKLLIKYASNLESGVPARFSGSGSGTDFTLTISSVEPEDFATYYCQHSWEIPPTFGGGTKLEIKRTVAAPSVFIFPPSDEQLKSGTASVVCLLNNFYPREAKVQWKVDNALQSGNSQESVTEQDSKDSTYSLSSTLTLSKADYEKHKVYACEVTHQGLSSPVTKSFNRGEC
modifications: N-glycan at EU N297; biotinylated (sites not given) in the CD40L ELISA
notes: Human IgG1, fully glycosylated, bivalent; Biotinylated in the CD40L ELISA; also called WT 5c8 hIgG1; WT 5C8 hIgG1
In the case of B2, the EC50 in assay [3] was 22 nM; with human FcγR IIb (CD32b), 292 nM; with human FcγR IIa (CD32a), 511 nM; in assay [4], 37 nM; in assay [5], 52 nM; in [6], 359 nM. This molecule also returned a 50% effective concentration (EC50) in assay [7] of 12 nM.

B3: 1×G4S-linked hemiglycosylated 5C8 scFc IgG1 antibody (pEAG2066) (antibody)
heavy: not shown
light: DIVLTQSPATLSVSPGERATISCRASQRVSSSTYSYMHWYQQKPGQPPKLLIKYASNLESGVPARFSGSGSGTDFTLTISSVEPEDFATYYCQHSWEIPPTFGGGTKLEIKRTVAAPSVFIFPPSDEQLKSGTASVVCLLNNFYPREAKVQWKVDNALQSGNSQESVTEQDSKDSTYSLSSTLTLSKADYEKHKVYACEVTHQGLSSPVTKSFNRGEC
notes: plasmid not given; also called hemi-glycosylated 1×-G4S linked scFc; 1×G4S linked scFc
Consider B3, for which the “fold weaker binding against WT IgG1” value in [8] is around 60 fold. Further, the “fold lower affinity against fully glycosylated WT human IgG1” value in [9] is around 57 fold. Besides, in assay [7], the EC50 was determined as 689 nM and the “IC50 (read off the curve)” value was around 70.

B4: 3×G4S-linked hemiglycosylated 5C8 scFc IgG1 antibody (pASK043) (antibody)
heavy: not shown
light: DIVLTQSPATLSVSPGERATISCRASQRVSSSTYSYMHWYQQKPGQPPKLLIKYASNLESGVPARFSGSGSGTDFTLTISSVEPEDFATYYCQHSWEIPPTFGGGTKLEIKRTVAAPSVFIFPPSDEQLKSGTASVVCLLNNFYPREAKVQWKVDNALQSGNSQESVTEQDSKDSTYSLSSTLTLSKADYEKHKVYACEVTHQGLSSPVTKSFNRGEC
notes: One heavy scFc chain and one light chain (monovalent); also called monovalent 3×G4S-linked hemiglycosylated scFc; hemi-glycosylated 3×-G4S linked scFc
As for B4, the EC50 worked out at 59 nM in assay [3]; 552 nM with human FcγR IIb (CD32b); 949 nM in the assay with human FcγR IIa (CD32a); 89 nM in assay [4]; 72 nM in assay [5]; 221 nM in assay [6]. The same molecule had a concentration for a half-maximal effect (EC50) in assay [7] of 77 nM. In addition, the “fold lower affinity against fully glycosylated WT human IgG1” value in [9] was around 4 fold.

B5: 3×G4S-linked fully glycosylated 5C8 scFc IgG1 antibody (ASK048) (antibody)
heavy: not shown
light: DIVLTQSPATLSVSPGERATISCRASQRVSSSTYSYMHWYQQKPGQPPKLLIKYASNLESGVPARFSGSGSGTDFTLTISSVEPEDFATYYCQHSWEIPPTFGGGTKLEIKRTVAAPSVFIFPPSDEQLKSGTASVVCLLNNFYPREAKVQWKVDNALQSGNSQESVTEQDSKDSTYSLSSTLTLSKADYEKHKVYACEVTHQGLSSPVTKSFNRGEC
notes: also called fully glycosylated 3×G4S linked scFc
As to B5, the EC50 was 18 nM in assay [3]; 183 nM in the assay with human FcγR IIb (CD32b); 304 nM in the assay with human FcγR IIa (CD32a); 32 nM in assay [4]; 17 nM in assay [5]; 206 nM in assay [6].

In general, EC50 (read off the curve) refers to the concentration giving half of the maximal effect. As usually defined, the EC50 is the concentration giving half of the maximal effect.
